Results: patent US20120321554A1 (MODIQUEST B V, published 2012)
Where no end group is shown, it is not given here.

B1: M13 phage displaying single domain antibody F8 (VHH)
VHH: QVQLQESGGGLVQAGDSLRLSCAASGRTFSTLIMAWFRQAPGKEREFVAAISRGGGSTSYADSVKGRFTISRDNSKNAVYLQMNSLKPDDTAVYYCNARYGSRIYWGQGTQVTVSS
notes: Whole M13 phage particle carrying F8; detected with anti-M13 antibody; also called phage F8; M13 phage associated antibody F8; not shown: M13 phage coat protein to which the sdab is fused (phagemid pHENIXHis8VSV); not described
B2: Llama single domain antibody F8 (soluble sdab, C-terminal 8*His-tag and VSV-G-tag) (VHH)
VHH: B1 VHH
notes: also called sdab F8; V-H single domain antibody F8
B3: Llama single domain antibody A12 (soluble sdab, C-terminal 8*His-tag and VSV-G-tag) (VHH)
VHH: QVQLQESGGGLVQPGGSLRLSCAASGSSISINNWGWYRQAPGKQRERVAAISGGGKTVYADSVKGRFTISRDNAKNTVYLQMNSLKPEDTAVYYCRAVRKSTGWLRGLDVWGQGTQVTVSA
notes: also called sdab A12; V-H single domain antibody A12
B4: M13 phage displaying single domain antibody A12 (VHH)
VHH: B3 VHH
notes: Whole M13 phage particle carrying A12; detected with anti-M13 antibody; also called phage A12; M13 phage associated antibody A12; not shown: M13 phage coat protein to which the sdab is fused (phagemid pHENIXHis8VSV); not described

Assays:
[1] = target: T1, Bovine serum albumin (bovine, UniProt P02769 25-607); assay: phage ELISA, anti-M13 detection
T1 construct: Control coat in ELISA; also called BSA

[2] = target: mouse plexin D1 (on vessels in mouse tissue) (mouse) (UniProt Q3UH93); assay: cell-based or functional assay
[3] = target: T2, PLXND1-peptide-KLH conjugate (human, also: conjugated to KLH, attachment site not given here); assay: SPR, Biacore 2000; peptide-KLH conjugate on CM5 chip, sdab in solution, BSA surface subtracted, 1:1 Langmuir model
T2 construct: Coupled to a CM5 chip (27 ug/ml in Na-Acetate pH 4.0) for the Biacore measurements; also called KLH-conjugated peptide
T2 peptide: ALEIQRRFPSPTPTNC-NH2

[4] = target: T1, Bovine serum albumin; assay: ELISA with soluble sdab, detection via VSV-G-tag
[5] = target: T3, human plexin D1 (in sections of human tumors) (human, UniProt Q9Y4D7 47-1925); assay: immunohistochemistry on human tumor tissue
T3 construct: whole, on cells; Endogenous protein on tumor cells and vessels in tissue sections (immunohistochemistry); also called PLXND1
T3 sequence (Q9Y4D7 47-1925): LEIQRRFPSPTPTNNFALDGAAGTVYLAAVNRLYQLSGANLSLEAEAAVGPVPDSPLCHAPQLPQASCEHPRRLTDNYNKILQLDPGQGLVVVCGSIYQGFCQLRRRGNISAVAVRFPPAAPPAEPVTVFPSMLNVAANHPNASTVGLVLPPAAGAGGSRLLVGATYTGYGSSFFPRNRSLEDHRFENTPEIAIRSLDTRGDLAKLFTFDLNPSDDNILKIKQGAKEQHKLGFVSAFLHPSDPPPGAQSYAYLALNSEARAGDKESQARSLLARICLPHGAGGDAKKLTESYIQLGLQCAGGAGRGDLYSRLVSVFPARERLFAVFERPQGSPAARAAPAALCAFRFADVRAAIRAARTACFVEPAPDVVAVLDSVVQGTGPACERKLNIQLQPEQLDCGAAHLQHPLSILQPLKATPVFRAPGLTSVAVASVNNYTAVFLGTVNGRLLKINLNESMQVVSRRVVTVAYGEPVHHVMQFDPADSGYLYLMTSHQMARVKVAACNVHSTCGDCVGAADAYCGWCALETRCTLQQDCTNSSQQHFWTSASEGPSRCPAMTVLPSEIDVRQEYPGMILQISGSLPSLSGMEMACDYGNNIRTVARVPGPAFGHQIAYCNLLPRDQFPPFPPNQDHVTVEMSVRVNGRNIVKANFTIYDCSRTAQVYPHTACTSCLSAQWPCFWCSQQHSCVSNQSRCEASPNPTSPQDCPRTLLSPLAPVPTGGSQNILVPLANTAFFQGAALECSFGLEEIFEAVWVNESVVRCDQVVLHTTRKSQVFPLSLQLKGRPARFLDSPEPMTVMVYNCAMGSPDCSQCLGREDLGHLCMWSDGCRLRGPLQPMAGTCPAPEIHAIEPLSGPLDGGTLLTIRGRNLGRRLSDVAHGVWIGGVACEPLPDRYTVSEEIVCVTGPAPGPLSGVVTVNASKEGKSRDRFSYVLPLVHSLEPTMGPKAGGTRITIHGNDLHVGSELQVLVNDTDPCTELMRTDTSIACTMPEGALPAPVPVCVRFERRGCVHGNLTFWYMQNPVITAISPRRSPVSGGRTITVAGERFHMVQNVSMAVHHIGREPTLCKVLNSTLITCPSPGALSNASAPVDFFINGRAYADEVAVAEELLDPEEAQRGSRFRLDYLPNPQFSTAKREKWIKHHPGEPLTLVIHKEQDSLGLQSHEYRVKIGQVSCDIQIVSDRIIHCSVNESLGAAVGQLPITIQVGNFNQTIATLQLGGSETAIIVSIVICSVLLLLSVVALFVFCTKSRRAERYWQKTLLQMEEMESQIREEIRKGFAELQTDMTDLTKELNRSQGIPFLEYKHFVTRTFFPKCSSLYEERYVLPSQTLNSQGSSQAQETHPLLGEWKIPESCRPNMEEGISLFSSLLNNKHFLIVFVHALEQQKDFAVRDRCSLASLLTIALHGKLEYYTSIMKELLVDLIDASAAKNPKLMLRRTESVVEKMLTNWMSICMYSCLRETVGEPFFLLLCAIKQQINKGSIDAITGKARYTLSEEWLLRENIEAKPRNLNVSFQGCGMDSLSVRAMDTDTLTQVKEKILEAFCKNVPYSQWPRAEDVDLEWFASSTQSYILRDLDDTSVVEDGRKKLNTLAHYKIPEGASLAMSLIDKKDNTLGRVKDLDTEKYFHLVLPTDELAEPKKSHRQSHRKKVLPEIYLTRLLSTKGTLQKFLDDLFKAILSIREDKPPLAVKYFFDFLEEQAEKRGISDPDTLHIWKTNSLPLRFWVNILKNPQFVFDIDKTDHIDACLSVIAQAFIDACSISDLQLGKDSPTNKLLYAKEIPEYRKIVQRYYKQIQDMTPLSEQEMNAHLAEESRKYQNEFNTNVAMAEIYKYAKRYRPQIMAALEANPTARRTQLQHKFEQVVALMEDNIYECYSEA

T1 sequence (P02769 25-607 limits assumed): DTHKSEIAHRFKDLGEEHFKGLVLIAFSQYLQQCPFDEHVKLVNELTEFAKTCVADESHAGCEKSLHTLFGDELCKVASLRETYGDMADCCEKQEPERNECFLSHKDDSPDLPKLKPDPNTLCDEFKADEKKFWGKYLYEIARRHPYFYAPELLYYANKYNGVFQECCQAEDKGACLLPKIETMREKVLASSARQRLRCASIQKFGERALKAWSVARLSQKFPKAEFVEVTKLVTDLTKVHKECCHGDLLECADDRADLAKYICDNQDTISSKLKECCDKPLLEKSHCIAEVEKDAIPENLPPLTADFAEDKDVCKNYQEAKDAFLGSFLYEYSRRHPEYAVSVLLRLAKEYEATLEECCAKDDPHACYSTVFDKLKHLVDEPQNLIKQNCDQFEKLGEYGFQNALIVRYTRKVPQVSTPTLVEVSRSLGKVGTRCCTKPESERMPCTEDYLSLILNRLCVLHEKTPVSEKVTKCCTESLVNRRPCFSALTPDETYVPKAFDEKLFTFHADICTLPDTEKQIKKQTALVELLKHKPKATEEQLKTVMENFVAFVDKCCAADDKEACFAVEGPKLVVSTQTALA
Chain of mouse plexin D1 (on vessels in mouse tissue) (mouse) (Q3UH93 49-1925): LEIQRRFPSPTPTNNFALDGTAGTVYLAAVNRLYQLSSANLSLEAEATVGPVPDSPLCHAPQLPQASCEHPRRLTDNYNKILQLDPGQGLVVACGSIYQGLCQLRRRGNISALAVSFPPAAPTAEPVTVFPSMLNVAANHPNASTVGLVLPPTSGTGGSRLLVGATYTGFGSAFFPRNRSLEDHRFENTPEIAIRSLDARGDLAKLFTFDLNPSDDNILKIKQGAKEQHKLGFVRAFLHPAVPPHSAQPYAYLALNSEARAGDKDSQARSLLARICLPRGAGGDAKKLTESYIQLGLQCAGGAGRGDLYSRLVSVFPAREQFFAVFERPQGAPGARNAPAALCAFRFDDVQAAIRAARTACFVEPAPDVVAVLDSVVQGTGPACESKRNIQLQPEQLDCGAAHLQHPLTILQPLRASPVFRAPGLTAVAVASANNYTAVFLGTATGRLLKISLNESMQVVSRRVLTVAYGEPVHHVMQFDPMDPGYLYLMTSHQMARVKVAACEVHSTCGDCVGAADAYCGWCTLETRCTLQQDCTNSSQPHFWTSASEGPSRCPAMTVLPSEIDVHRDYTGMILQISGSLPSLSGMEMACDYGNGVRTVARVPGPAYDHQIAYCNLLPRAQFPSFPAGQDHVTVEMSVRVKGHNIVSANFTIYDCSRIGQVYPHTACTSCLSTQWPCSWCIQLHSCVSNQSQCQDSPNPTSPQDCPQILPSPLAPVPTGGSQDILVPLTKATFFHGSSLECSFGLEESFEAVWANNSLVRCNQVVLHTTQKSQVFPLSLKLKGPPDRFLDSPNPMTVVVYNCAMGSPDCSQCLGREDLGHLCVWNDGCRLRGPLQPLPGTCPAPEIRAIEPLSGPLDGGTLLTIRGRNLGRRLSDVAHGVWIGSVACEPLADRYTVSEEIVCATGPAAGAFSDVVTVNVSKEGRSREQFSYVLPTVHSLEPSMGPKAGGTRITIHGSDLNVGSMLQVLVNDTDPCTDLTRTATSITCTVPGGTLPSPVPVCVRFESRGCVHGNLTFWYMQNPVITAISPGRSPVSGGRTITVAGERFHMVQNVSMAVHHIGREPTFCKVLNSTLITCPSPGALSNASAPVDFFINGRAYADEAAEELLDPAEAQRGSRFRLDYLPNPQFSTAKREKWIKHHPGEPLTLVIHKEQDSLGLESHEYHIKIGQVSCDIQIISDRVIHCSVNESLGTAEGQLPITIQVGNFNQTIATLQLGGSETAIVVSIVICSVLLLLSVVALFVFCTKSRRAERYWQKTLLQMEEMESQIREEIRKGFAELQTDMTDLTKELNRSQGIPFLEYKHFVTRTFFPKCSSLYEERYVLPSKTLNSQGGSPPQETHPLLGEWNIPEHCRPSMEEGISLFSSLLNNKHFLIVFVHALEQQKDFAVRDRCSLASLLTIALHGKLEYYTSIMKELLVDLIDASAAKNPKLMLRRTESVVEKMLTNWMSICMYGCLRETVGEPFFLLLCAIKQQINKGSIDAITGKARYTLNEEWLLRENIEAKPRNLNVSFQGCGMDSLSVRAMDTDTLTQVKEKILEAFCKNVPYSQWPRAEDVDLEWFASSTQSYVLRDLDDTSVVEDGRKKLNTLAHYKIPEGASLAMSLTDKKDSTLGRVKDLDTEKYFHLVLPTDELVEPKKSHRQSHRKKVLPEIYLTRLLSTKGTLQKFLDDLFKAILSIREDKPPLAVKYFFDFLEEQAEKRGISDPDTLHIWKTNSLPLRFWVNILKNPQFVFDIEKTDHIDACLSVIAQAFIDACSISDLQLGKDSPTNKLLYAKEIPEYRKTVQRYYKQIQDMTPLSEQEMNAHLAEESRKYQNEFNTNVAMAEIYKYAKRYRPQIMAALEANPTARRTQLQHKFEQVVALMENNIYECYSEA

Binder | binding result [1] | quantification of phage homing: colony-forming phages eluted from laser-dissected tumor tissue against unaffected brain [2] [fold] | Kd [3] [nM] | binding result [4] | binding result [5]
B1 | no binding (tested: 10^10 phages) | 20 | – | – | –
B2 | – | – | 35 | no binding | –
B3 | – | – | 21 | no binding | binds
B4 | no binding (tested: 10^10 phages) | – | – | – | –
